Source: patent US20020160482A1, “Methods for protein purification” (priority 2001, published 2002)

Legend:
[1] = target: T1, purified SSAO protein (recombinant human SSAO) (Homo sapiens, UniProt Q16853); assay: Semicarbazide inhibition of benzylamine oxidase activity (spectrophotometric amine oxidase assay); assay type: biochemical; conditions: in the presence of 0.1 mM semicarbazide, read-out: benzylamine oxidase activity inhibited
T1 construct: residues 29-763 of the human SSAO protein cloned from human aorta cDNA; mutated S. japonicum GST (Cys85/138/178 to Ser) with SQSQ spacer and 3C protease site EALFQG (N, cleaved yes); murine IgG1 heavy chain signal peptide (mutated), followed by an 18 amino acid spacer (N, cleaved yes); made in house; host or cells: HEK293 cells stably transfected with pMB887, protein secreted into the medium
T1 sequence (Q16853 29-763): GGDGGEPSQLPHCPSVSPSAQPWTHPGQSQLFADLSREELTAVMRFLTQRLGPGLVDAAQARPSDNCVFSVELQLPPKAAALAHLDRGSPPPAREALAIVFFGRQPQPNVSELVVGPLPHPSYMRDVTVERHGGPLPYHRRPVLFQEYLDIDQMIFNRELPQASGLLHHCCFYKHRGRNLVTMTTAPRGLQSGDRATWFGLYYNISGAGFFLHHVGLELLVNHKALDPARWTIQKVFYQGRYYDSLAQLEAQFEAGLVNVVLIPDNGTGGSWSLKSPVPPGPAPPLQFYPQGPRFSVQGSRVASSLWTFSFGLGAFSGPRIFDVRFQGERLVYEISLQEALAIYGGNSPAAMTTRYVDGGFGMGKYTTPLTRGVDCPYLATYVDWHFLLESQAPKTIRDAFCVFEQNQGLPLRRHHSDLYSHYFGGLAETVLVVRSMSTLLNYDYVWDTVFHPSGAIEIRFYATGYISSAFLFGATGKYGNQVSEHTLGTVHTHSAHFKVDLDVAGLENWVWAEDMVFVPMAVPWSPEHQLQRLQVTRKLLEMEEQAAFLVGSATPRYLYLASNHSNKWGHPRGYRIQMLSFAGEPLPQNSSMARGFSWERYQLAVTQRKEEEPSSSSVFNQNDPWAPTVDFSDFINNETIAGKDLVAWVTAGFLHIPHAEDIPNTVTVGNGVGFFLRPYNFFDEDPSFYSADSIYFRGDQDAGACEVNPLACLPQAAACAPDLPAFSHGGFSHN
Description: A spectrophotometric assay for monoamine oxidases described by Holt and coworkers (Holt et al., 1997) was used to determine amine oxidase activity in samples from the different purification steps. The assay was performed in 96-well microtiter plates incubated at 37° C. in a SPECTRAmax 250 microplate spectrophotometer (Molecular Devices, Sunnyvale, Calif.). The reagent mix containing 1 mM vanillic acid (Sigma, St. Louis, Mo.), 500 μM 4-aminoantipyrine (Sigma), and 4U ml^−1 peroxidase (type VI from horseradish, Sigma) in 0.2 M potassium phosphate buffer (pH 7.6) was prepared on the same day assays were performed and kept at 5° C. until used. Reactions were started by mixing 50 μl sample, 50 μl reagent mix and 200 μl potassium phosphate buffer with or without 750 μM benzylamine hydrochloride (Sigma) and were performed in triplicate. In order to obtain blank reference values, wells were analyzed with buffer added in place of sample. Absorbance changes were followed at 490 nm for 10-40 minutes. Standard curves were prepared with dilutions of a stock solution of H2O2 in potassium phosphate buffer ranging from 10 nmol/well to 120 nmol/well. When inhibition experiments were carried out, the samples were incubated in 300 μM semicarbazide at 37° C. for 30 minutes, before addition of the benzylamine solution. […]

[2] = Spectrophotometric amine oxidase assay: specific benzylamine oxidase activity of purified proteins; assay type: biochemical, human
Description: A spectrophotometric assay for monoamine oxidases described by Holt and coworkers (Holt et al., 1997) was used to determine amine oxidase activity in samples from the different purification steps. The assay was performed in 96-well microtiter plates incubated at 37° C. in a SPECTRAmax 250 microplate spectrophotometer (Molecular Devices, Sunnyvale, Calif.). The reagent mix containing 1 mM vanillic acid (Sigma, St. Louis, Mo.), 500 μM 4-aminoantipyrine (Sigma), and 4U ml^−1 peroxidase (type VI from horseradish, Sigma) in 0.2 M potassium phosphate buffer (pH 7.6) was prepared on the same day assays were performed and kept at 5° C. until used. Reactions were started by mixing 50 μl sample, 50 μl reagent mix and 200 μl potassium phosphate buffer with or without 750 μM benzylamine hydrochloride (Sigma) and were performed in triplicate. In order to obtain blank reference values, wells were analyzed with buffer added in place of sample. Absorbance changes were followed at 490 nm for 10-40 minutes. Standard curves were prepared with dilutions of a stock solution of H2O2 in potassium phosphate buffer ranging from 10 nmol/well to 120 nmol/well. When inhibition experiments were carried out, the samples were incubated in 300 μM semicarbazide at 37° C. for 30 minutes, before addition of the benzylamine solution.

**Q.** With `NNC(N)=O` [semicarbazide] as the molecule, how does the inhibition at 100 µM [1] read?
**A.** The inhibition at 100 µM was > 95%.

B1: SSAO protein: purified soluble recombinant human SSAO (residues 29-763) after removal of the GST fusion partner (protein, listed as Homo sapiens)
chain: GGDGGEPSQLPHCPSVSPSAQPWTHPGQSQLFADLSREELTAVMRFLTQRLGPGLVDAAQARPSDNCVFSVELQLPPKAAALAHLDRGSPPPAREALAIVFFGRQPQPNVSELVVGPLPHPSYMRDVTVERHGGPLPYHRRPVLFQEYLDIDQMIFNRELPQASGLLHHCCFYKHRGRNLVTMTTAPRGLQSGDRATWFGLYYNISGAGFFLHHVGLELLVNHKALDPARWTIQKVFYQGRYYDSLAQLEAQFEAGLVNVVLIPDNGTGGSWSLKSPVPPGPAPPLQFYPQGPRFSVQGSRVASSLWTFSFGLGAFSGPRIFDVRFQGERLVYEISLQEALAIYGGNSPAAMTTRYVDGGFGMGKYTTPLTRGVDCPYLATYVDWHFLLESQAPKTIRDAFCVFEQNQGLPLRRHHSDLYSHYFGGLAETVLVVRSMSTLLNYDYVWDTVFHPSGAIEIRFYATGYISSAFLFGATGKYGNQVSEHTLGTVHTHSAHFKVDLDVAGLENWVWAEDMVFVPMAVPWSPEHQLQRLQVTRKLLEMEEQAAFLVGSATPRYLYLASNHSNKWGHPRGYRIQMLSFAGEPLPQNSSMARGFSWERYQLAVTQRKEEEPSSSSVFNQNDPWAPTVDFSDFINNETIAGKDLVAWVTAGFLHIPHAEDIPNTVTVGNGVGFFLRPYNFFDEDPSFYSADSIYFRGDQDAGACEVNPLACLPQAAACAPDLPAFSHGGFSHN
**Q.** What does the source list for B1?
**A.** specific activity ([2]; after cleavage, flow-through of second glutathione-Sepharose step (cleavage buffer with DTT)): 522 nmol/min/mg; specific activity ([2]; after removal of GST fusion partner and diafiltration (final product)): 809 nmol/min/mg; specific activity ([2]; per purification step, nmol of H2O2 produced per minute using 0.5 mM benzylamine as substrate, listed as Diafiltrate): 809 nmol/min/mg; specific activity ([2]; per purification step, nmol of H2O2 produced per minute using 0.5 mM benzylamine as substrate, listed as GSH-affinity step-2 (flow-through)): 522 nmol/min/mg
